Results: publication PMC4709127, “Wuho Is a New Member in Maintaining Genome Stability through its Interaction with Flap Endonuclease 1”

T1: hWH (Wuho, WDR4) (Homo sapiens, UniProt P57081 1-412)
T1 sequence: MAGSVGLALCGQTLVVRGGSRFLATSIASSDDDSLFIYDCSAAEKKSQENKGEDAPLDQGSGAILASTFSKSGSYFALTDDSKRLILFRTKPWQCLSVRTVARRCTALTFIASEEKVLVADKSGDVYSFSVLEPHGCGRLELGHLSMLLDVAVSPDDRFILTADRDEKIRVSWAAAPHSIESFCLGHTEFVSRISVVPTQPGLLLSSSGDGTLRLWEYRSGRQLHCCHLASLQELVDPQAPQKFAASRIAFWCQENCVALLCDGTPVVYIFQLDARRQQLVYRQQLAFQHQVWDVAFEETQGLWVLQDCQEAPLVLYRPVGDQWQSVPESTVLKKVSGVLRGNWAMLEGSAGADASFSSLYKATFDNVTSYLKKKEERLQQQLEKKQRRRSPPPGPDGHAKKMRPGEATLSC


Experiments:
hWH (Wuho, WDR4) = target: T1, hWH (Wuho, WDR4); test: EMSA; hWH 25-1000 nM, no significant affinity; 50 nM DNA, 50 mM Tris pH 8, 50 mM NaCl, 37 C, 10 min, 20 ul; TBE-PAGE; settings: protein: recombinant, tags: C-terminal His6 (pET23b), label: 5' fluorophore (FAM on oligo 1, or Cy5 on oligo 4)
FEN1 = FEN1 (Homo sapiens, UniProt P39748 1-380); test: EMSA; no Mg2+ in binding buffer; FEN1 25-1000 nM; 50 nM DNA, 50 mM Tris pH 8, 50 mM NaCl, 37 C, 10 min, 20 ul; TBE-PAGE; settings: protein: recombinant, tags: C-terminal His6, label: 5' fluorophore (FAM on oligo 1, or Cy5 on oligo 4)
FEN1, sequence (P39748 whole entry): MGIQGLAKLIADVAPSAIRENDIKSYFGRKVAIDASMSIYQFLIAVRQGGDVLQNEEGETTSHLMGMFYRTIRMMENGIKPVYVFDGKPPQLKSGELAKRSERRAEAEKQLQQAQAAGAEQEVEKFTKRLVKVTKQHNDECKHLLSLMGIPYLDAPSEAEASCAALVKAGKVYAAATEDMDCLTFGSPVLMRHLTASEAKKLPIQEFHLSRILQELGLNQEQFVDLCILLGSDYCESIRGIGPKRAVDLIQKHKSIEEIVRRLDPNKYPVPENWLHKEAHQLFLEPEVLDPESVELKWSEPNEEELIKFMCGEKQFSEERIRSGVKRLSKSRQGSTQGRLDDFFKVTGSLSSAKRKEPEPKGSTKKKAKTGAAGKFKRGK

[1] = double flap: 1:15-34 or 1:21-34 pairs with 2:1-14 (14 bp), 5' flap 20 nt, 3:1-16 pairs with 2:15-30 (16 bp), 3' flap 1 nt
[2] = fork: 14 bp duplex (1:21-34 with 2:1-14), 5' arm 20 nt, 3' arm 16 nt

Binder	binding result (hWH (Wuho, WDR4); [1])	binding result (FEN1; [1])	binding result (hWH (Wuho, WDR4); [2])	binding result (FEN1; [2])
Double-flap substrate (dsDNA) DNA 1: GATGTCAAGCAGTCCTAACTTTGAGGCAGAGTCC DNA 2: GGACTCTGCCTCAAGACGGTAGTCAACGTG DNA 3: CACGTTGACTACCGTCC	no binding	binds		
Y-shape substrate (dsDNA) DNA 1: GATGTCAAGCAGTCCTAACTTTGAGGCAGAGTCC DNA 2: GGACTCTGCCTCAAGACGGTAGTCAACGTG			no binding	binds
